This is an account of results in patent US10064928B2, “Peptides and combination of peptides for use in immunotherapy against CLL and other cancers” (IMMATICS BIOTECHNOLOGIES GMBH, priority 2015, dated 2018).

For this assay, the target named is HLA-A*02:01 (Homo sapiens, UniProt P04439, D140Y/D185E/D98H/E176V/E277Q/G131W/G231S/I119V/I121R/I166T/I218V/L300P/L318F/N151K/N90K/P208A/P217A/Q86G/Q94H/R138H/R169H/T345S). Kind of assay: MHC binding assay (UV-ligand exchange, beta2m ELISA). The settings on record: binding of HLA-class I restricted peptides to HLA-A*02:01, β2m ELISA. The source says: Candidate peptides for T cell based therapies according to the present invention were further tested for their MHC binding capacity (affinity). The individual peptide-MHC complexes were produced by UV-ligand exchange, where a UV-sensitive peptide is cleaved upon UV-irradiation, and exchanged with the peptide of interest as analyzed. Only peptide candidates that can effectively bind and stabilize the peptide-receptive MHC molecules prevent dissociation of the MHC complexes. To determine the yield of the exchange reaction, an ELISA was performed based on the detection of the light chain (β2m) of stabilized MHC complexes. The assay was performed as generally described in Rodenko et al. (Rodenko et al., 2006).
96 well MAXISorp plates (NUNC) were coated over night with 2 ug/ml streptavidin in PBS at room temperature, washed 4× and blocked for 1 h at 37° C. in 2% BSA containing blocking buffer. Refolded HLA-A*02:01/MLA-001 monomers served as standards, covering the range of 15-500 ng/ml. Peptide-MHC monomers of the UV-exchange reaction were diluted 100 fold in blocking buffer. Samples were incubated for 1 h at 37° C., washed four times, incubated with 2 ug/ml HRP conjugated anti-β2m for 1 h at 37° C., washed again and detected with TMB solution that is stopped with […]. Absorption was measured at 450 nm. Candidate peptides that show a high exchange yield (preferably higher than 50%, most preferred higher than 75%) are generally preferred for a generation and production of antibodies or fragments thereof, and/or T cell receptors or fragments thereof, as they show sufficient avidity to the MHC molecules and prevent dissociation of the MHC complexes.
With “34 (YLPYIFPNI; listed as Homo sapiens) [compound 34]”, the “Peptide Exchange (MHC class I binding score, peptide exchange yield)” value (“Peptide Exchange” for short) is ““+++” (≥50 = +++)”.
Take “35 (FILPSSLYL; listed as Homo sapiens) [compound 35]”: the “Peptide Exchange” value was ““+++” (≥50 = +++)”.
On to “36 (FILTHVDQL; listed as Homo sapiens) [compound 36]”, for which the “Peptide Exchange” value is ““++++” (≥75% = ++++)”.
As for “37 (FIMEGGAMVL; listed as Homo sapiens) [compound 37]”, the “Peptide Exchange” value is recorded as ““++++” (≥75% = ++++)”.
The entry for “38 (FIMEGGAMV; listed as Homo sapiens) [compound 38]” is ““+++” (≥50 = +++)”; for “39 (FLDALLTDV; listed as Homo sapiens) [compound 39]” it is ““+++” (≥50 = +++)”; for “40 (FLDEDDMSL; listed as Homo sapiens) [compound 40]” it is ““++” (≥20% = ++)”.
The entry for “41 (FLDPSLDPLL; listed as Homo sapiens) [compound 41]” is ““+++” (≥50 = +++)”.
With “42 (FLEEGGVVTV; listed as Homo sapiens) [compound 42]”, the “Peptide Exchange” value is ““+++” (≥50 = +++)”.
The entry for “43 (FLLGPEALSFA; listed as Homo sapiens) [compound 43]” is ““++++” (≥75% = ++++)”.
The entry for “44 (FLLSINDFL; listed as Homo sapiens) [compound 44]” is ““+++” (≥50 = +++)”; for “45 (FLPELPADLEA; listed as Homo sapiens) [compound 45]” it is ““+++” (≥50 = +++)”.
The entry for “46 (YIIDSAQAV; listed as Homo sapiens) [compound 46]” is ““+++” (≥50 = +++)”; for “47 (FLSDQPEPYL; listed as Homo sapiens) [compound 47]” it is ““++” (≥20% = ++)”.
As to “48 (FLSPQQPPLL; listed as Homo sapiens) [compound 48]”, the “Peptide Exchange” value was ““+++” (≥50 = +++)”.
The entry for “50 (FLFEPVVKAFL; listed as Homo sapiens) [compound 50]” is ““+++” (≥50 = +++)”.
The entry for “51 (FLVEAPHDWDL; listed as Homo sapiens) [compound 51]” is ““++++” (≥75% = ++++)”; for “52 (FLVETGFLHV; listed as Homo sapiens) [compound 52]” it is ““++++” (≥75% = ++++)”; for “53 (FLWQHVELVL; listed as Homo sapiens) [compound 53]” it is ““+++” (≥50 = +++)”.
The entry for “55 (FMEPTLLML; listed as Homo sapiens) [compound 55]” is ““+++” (≥50 = +++)”; for “58 (YIQQGIFSV; listed as Homo sapiens) [compound 58]” it is ““+++” (≥50 = +++)”; for “59 (FVFGDENGTVSL; listed as Homo sapiens) [compound 59]” it is ““+++” (≥50 = +++)”.
On to “60 (FVLDHEDGLNL; listed as Homo sapiens) [compound 60]”, for which the “Peptide Exchange” value is on record as ““+++” (≥50 = +++)”.
The entry for “61 (FVYFIVREV; listed as Homo sapiens) [compound 61]” is ““+++” (≥50 = +++)”; for “62 (GIIDGSPRL; listed as Homo sapiens) [compound 62]” it is ““+++” (≥50 = +++)”; for “63 (SLAHVAGCEL; listed as Homo sapiens) [compound 63]” it is ““+++” (≥50 = +++)”.
